Test results: patent publication US7858084B2, “Methods of treatment with renalase (monoamine oxidase C)” (Yale University, priority 2005, dated 2010)
Entries after “also recorded” stand apart in the source; their conditions may differ.

Experiments:
[1] = blood pressure and heart rate in conscious mice; type: in vivo
Procedure: We also tested the effect of renalase on blood pressure and heart rate in conscious mice. Recombinant renalase was prepared using the method described in Example 3 of PCT/US05/009248, which is specifically and completely incorporated herein by reference. As explained in more detail therein, the recombinant protein made in E. coli as used in the examples herein is refolded before administration. Thus, the recombinant renalase protein as used herein is in the active form (i.e., it is active renalase as defined above).
The recombinant protein was given by tail vein injection (100 μg) or retroorbital injection (1 mg) and ambulatory blood pressure and heart rates were measured continuously for 24 hours.

[2] = tested on: isolated perfused mouse heart; experiment: isolated perfused mouse heart model of ischemia-reperfusion
Text: Since renalase can metabolize catecholamines, we tested whether it could protect against ischemic myocardial damage.

[3] = infusion of recombinant renalase into rats; type: in vivo
[4] = amine oxidase activity in vitro of renalase isolated from blood and urine; type: biochemical, human; settings: basal conditions
Text: We have tested renalase isolated from blood and urine.

B1: renalase: recombinant renalase protein made in E. coli, refolded before administration; secreted FAD-containing monoamine oxidase of the kidney (protein)
chain: ALLRKEITAPLYLALWDKAGDIGGRMTTANSPHNPRCTADLGAQYITCTPHYAKKHQNFYEELLAHGILEPLTSPIKGMEVKEGESNFVAPHGVSSIIKYYLKESGAEVFLRQCVTQINLRDNKWEVSEDTGSTQQFDLVILTMPAPQILGLQGDIVNLISERQRQQLASVSYSSRYALGLFYEAGMKIDVPWAGQYITSNPCIRFISIDSKKRNTESSECGPLLVVHTTVPFGVTHLEHSEEDVQELITQQLETILPGLPPPVATKCWKWRYSQVTNSAANSPGQMTLHLNPFLIYI
[1]; 100 μg by tail injection
  mean blood pressure: remained unchanged
[1]; 100 μg by tail injection, conscious mice
  minute-to-minute variability in blood pressure: decreased
[1]; 100 μg by tail injection, for several hours
  heart rate: significantly increased
[1]; 1 mg by retroorbital injection
  blood pressure: significant and long-lasting fall
  heart rate: significant and long-lasting fall
[1]; continuous IV infusion, after stopping
  reversibility of the blood pressure effect: reversible
[1]; continuous infusion by tail vein, 20 μg/minute, during the period of infusion
  blood pressure: reduction in blood pressure
[2]; infusion from 10 minutes before 15 min global ischemia until 2 hours after reperfusion, versus control protein glutathione synthase
  myocardial (left ventricular) function: preserved myocardial function significantly better; also recorded: preserves left ventrical (LV) function
[2]; ischemia-reperfusion, n=3, p<0.001
  decrease of myocardial necrosis: 54%
[3]
  blood pressure: reduction
  heart rate: lower

B2: protein isolated from human blood: native renalase isolated from human blood under basal conditions (protein, UniProt Q5VYX0 18-342, looked up)
Renalase: ALLRRQTSGPLYLAVWDKAEDSGGRMTTACSPHNPQCTADLGAQYITCTPHYAKKHQRFYDELLAYGVLRPLSSPIEGMVMKEGDCNFVAPQGISSIIKHYLKESGAEVYFRHRVTQINLRDDKWEVSKQTGSPEQFDLIVLTMPVPEILQLQGDITTLISECQRQQLEAVSYSSRYALGLFYEAGTKIDVPWAGQYITSNPCIRFVSIDNKKRNIESSEIGPSLVIHTTVPFGVTYLEHSIEDVQELVFQQLENILPGLPQPIATKCQKWRHSQVTNAAANCPGQMTLHHKPFLACGGDGFTQSNFDGCITSALCVLEALKNYI
[4]
  amine oxidase activity in vitro: no significant amine oxidase activity

B3: renalase isolated from human urine: native renalase isolated from human urine (protein, UniProt Q5VYX0 18-342, looked up)
Renalase: ALLRRQTSGPLYLAVWDKAEDSGGRMTTACSPHNPQCTADLGAQYITCTPHYAKKHQRFYDELLAYGVLRPLSSPIEGMVMKEGDCNFVAPQGISSIIKHYLKESGAEVYFRHRVTQINLRDDKWEVSKQTGSPEQFDLIVLTMPVPEILQLQGDITTLISECQRQQLEAVSYSSRYALGLFYEAGTKIDVPWAGQYITSNPCIRFVSIDNKKRNIESSEIGPSLVIHTTVPFGVTYLEHSIEDVQELVFQQLENILPGLPQPIATKCQKWRHSQVTNAAANCPGQMTLHHKPFLACGGDGFTQSNFDGCITSALCVLEALKNYI
[4]
  amine oxidase activity in vitro: metabolizes catecholamines
